According to the RNAGym collection of RNA variant scans (doi:10.1073/pnas.2313332121):
This sample holds only a part of the variants without activity.

B1: TPR 5TU (parent)
chain: GGAUCUUCUCGAUCUAACAAAAAAGACAAAUCUGCCACAAAGCUUGAGAGCAUCUUCGGAUGCAGAGGCGGCAGCCUUCGGUGGCGCGAUAGCGCCAACGUUCUCAACUAUGACACGCAAAACGCGUGCUCCGUUGAAUGGAGUUUAUCAUG

Variants of: B1
Experiment: polymerase ribozyme fitness, log enrichment relative to wild type (log ratio); higher = more active; in vitro selection for triplet polymerase activity
Summary of the method: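 One round of in vitro selection, in triplicate, was applied to PCR-built, transcribed mutant libraries of each subunit of a heterodimeric triplet polymerase ribozyme. The steps were annealing with a biotinylated primer, partner subunit and triplets, incubation frozen at −7 °C, gel excision of extended constructs, streptavidin-bead capture and RT-PCR. Fitness is the logarithm, base 2, of genotype enrichment over wild-type enrichment from inverse-variance-weighted replicate averages of Illumina-sequenced inputs and outputs, keeping genotypes with ≥10 input reads and ≥1 read per output.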

Point of comparison: GGAUCUUCUCGAUCUAACAAAAAAGACAAAUCUGCCACAAAGCUUGAGAGCAUCUUCGGAUGCAGAGGCGGCAGCCUUCGGUGGCACGAUAGCGCCAACGUUCUCAACUAUGACACGUAAAACGCGUGCUCCGUUGAAUGCAGUUUAUCAUG [G86A C118U G141C], “polymerase ribozyme fitness (log ratio)” value -1.77. Against it:
- GGAUCUUCUCGAUCUAACAAAAAAGACAAAUCUGCCACAAAGCUUGAGAGCAUCUUCGGAUGCAGAGGCGGCAGCCUUCGGUGGUGCGAUAGCGCCAACGUUCUCAACUAUGACACGCAAAACGCGUGCUCCGUUGAAUGGAGUUUAACAUG [C85U U148A] — lower, -3.08
- GGAUCUUCUCGAUCUAACAAAAAAGACAAAUCUGCCACAAAGCUUGAGAGCAUCUUCGGAUGCAGAGGCGGCAGCCUUCGGUGGUGCGAUAGCGCCAACGUUCUCAACUAUGACACGCAAAACGCGUGCUCCGUUGAAUGGAGUUUACCAUG [C85U U148C] — lower, -2.19
- GGAUCUUCUCGAUCUAACAAAAAAGACAAAUCUGCCACAAAGCUUGAGAGCAUCUUCGGAUGCAGAGGCGGCAGCCUUCGGUGGCACGUUAGCGCCAACGUUCUUAACUAUGACACGCAAAACGCGUGCUCCGAUGAAUGGAGUUUAUCAUG [G86A A89U C105U U134A] — lower, -3.77
- GGAUCUUCUCGAUCUAACAAAAAAGACAAAUCUGCCACAAAGCUUGAGAGCAUCUUCGGAUGCAGAGGCGGCAGCCUUCGGUGGUGCGAUAGCGCCAACGUUCUCAACUAUGACACGCAAAACGCGUGCUCCGUUGAAUGGAGUUUAUCAGG [C85U U151G] — lower, -4.14
- GGAUCUUCUCGAUCUAACAAAAAAGACAAAUCUGCCACAAAGCUUGAGAGCAUCUUCGGAUGCAGAGGCGGCAGCCUUCGGUGGCACGUUAGCGCCAACGUUCUCAACUAUGACACGCAAAAUGCGUGCUCCGUUGAAUGGAGUUUAUCAUG [G86A A89U C123U] — lower, -2.1
- GGAUCUUCUCGAUCUAACAAAAAAGACAAAUCUGCCACAAAGCUUGAGAGCAUCUUCGGAUGCAGAGGCGGCAGCCUUCGGUGGCAGGAUAGCGCCAACGUUCUCAACUAUGACACGCAAAACGCGUGCUCCGUUGAAUGGAGUUUAUCAUG [G86A C87G] — lower, -3.97
- GGAUCUUCUCGAUCUAACAAAAAAGACAAAUCUGCCACAAAGCUUGAGAGCAUCUUCGGAUGCAGAGGCGGCAGCCUUCGGUGGUGCGAUAGCGCCAACGUUCUCAACUAUGACACGCAAAACGCGUGCUCCGUGGAAUGAAGUUUAUCAUG [C85U U135G G141A] — lower, -3.54
- GGAUCUUCUCGAUCUAACAAAAAAGACAAAUCUGCCACAAAGCUUGAGAGCAUCUUCGGAUGCAGAGGCGGCAGCCUUCGGUGGCACGAUAGCGCCAACGUUCUCAACUAUGACAGGCAAAACGCGUGCUCCGUUGAAUGGAGUUUAUCCUG [G86A C116G A150C] — lower, -3.93
- GGAUCUUCUCGAUCUAACAAAAAAGACAAAUCUGCCACAAAGCUUGAGAGCAUCUUCGGAUGCAGAGGCGGCAGCCUUCGGUGGCACGAUAGCGCCAACGUUCUCAACUAUGACACGCAAAACGCGUGCUCCGUUGAAUGGCGUUUAUCAUG [G86A A142C] — lower, -2.27
- GGAUCUUCUCGAUCUAACAAAAAAGACAAAUCUGCCACAAAGCUUGAGAGCAUCUUCGGAUGCAGAGGCGGCAGCCUUCGGUGGCACGAUAGCGCCAACGUUCUCAUCUAUGACACGCAAAACGCGUGCUCCGUUGAAUGGAGUUUAUCAUG [G86A A107U] — lower, -3.39
- GGAUCUUCUCGAUCUAACAAAAAAGACAAAUCUGCCACAAAGCUUGAGAGCAUCUUCGGAUGCAGAGGCGGCAGCCUUCGGUGGUGCGAUAGCGCCAACGUUCUCAACUAUGACACGCAAAACGCGUGCUCCGUUGAAUGGAGUAUAUCAUG [C85U U145A] — higher, -0.468
- GGAUCUUCUCGAUCUAACAAAAAAGACAAAUCUGCCACAAAGCUUGAGAGCAUCUUCGGAUGCAGAGGCGGCAGCCUUCGGUGGUGCGAUAGCGCCAACGUUCUCAACUAUGACACGCAAAACGCGUGCUCCGUUGAAUGGAGUGUAUCAUG [C85U U145G] — lower, -2
- GGAUCUUCUCGAUCUAACAAAAAAGACAAAUCUGCCACAAAGCUUGAGAGCAUCUUCGGAUGCAGAGGCGGCAGCCUUCGGUGGCACGAUAGCGCCAACGUUCUUAACUAUGACACGCAAAACGCGUGCUCCGUUGAAUGGAGUUUAUCAUG [G86A C105U] — higher, -0.138
- GGAUCUUCUCGAUCUAACAAAAAAGACAAAUCUGCCACAAAGCUUGAGAGCAUCUUCGGAUGCAGAGGCGGCAGCCUUCGGUGGUGCGAUAGCGCCAACGUUCUCAACUAUGACACGCAAAACGCGUGCUCCGUUGAAUGGAGUUGACCAUG [C85U U146G U148C] — lower, -2.24
- GGAUCUUCUCGAUCUAACAAAAAAGACAAAUCUGCCACAAAGCUUGAGAGCAUCUUCGGAUGCAGAGGCGGCAGCCUUCGGUGGCACGAUAGCGCCAACGUUCUCAACUAUGACACGCAAAACGCGUGCUCCGUUGAAUGGAGUUUAUAAUG [G86A C149A] — lower, ≤ -4.2
- GGAUCUUCUCGAUCUAACAAAAAAGACAAAUCUGCCACAAAGCUUGAGAGCAUCUUCGGAUGCAGAGGCGGCAGCCUUCGGUGGCACGAUAGCGCCAACGUUCUCAACUAUGCCACGCAAAACGCGUGCUCCGUUGAAUGGAGUUUAUCAUG [G86A A113C] — lower, -3.53
- GGAUCUUCUCGAUCUAACAAAAAAGACAAAUCUGCCACAAAGCUUGAGAGCAUCUUCGGAUGCAGAGGCGGCAGCCUUCGGUGGUGCGAUAGCGCCAACGUUCUCAACUAUGACACGCAAAACGCGUGCUCCGUUGAAUGGAGUUGAUCAUG [C85U U146G] — higher, -0.713
- GGAUCUUCUCGAUCUAACAAAAAAGACAAAUCUGCCACAAAGCUUGAGAGCAUCUUCGGAUGCAGAGGCGGCAGCCUUCGGUGGUGCGAUAGCGCCAACGUUCUCAACUAUGACACGCAAAACGCGUGCUCCGUUGAAUGGAGUUAAUCAUG [C85U U146A] — higher, -0.167
